Results: patent publication US20180155451A1 (published 2018)

T1: FcγRIIb extracellular domain with C-terminal His tag (human, UniProt P31994 43-217)
T1 construct: extracellular domain; also called 2b; FcgRIIb
T1 sequence (looked up): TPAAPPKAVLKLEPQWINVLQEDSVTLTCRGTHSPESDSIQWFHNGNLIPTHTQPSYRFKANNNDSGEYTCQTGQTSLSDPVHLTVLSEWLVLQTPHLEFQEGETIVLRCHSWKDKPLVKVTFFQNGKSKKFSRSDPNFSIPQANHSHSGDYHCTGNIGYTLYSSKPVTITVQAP

T2: FcγRIIa H (human, UniProt P12318 34-217)
T2 construct: extracellular domain; also called FcγRIIa type H; 2aH
T2 sequence (looked up): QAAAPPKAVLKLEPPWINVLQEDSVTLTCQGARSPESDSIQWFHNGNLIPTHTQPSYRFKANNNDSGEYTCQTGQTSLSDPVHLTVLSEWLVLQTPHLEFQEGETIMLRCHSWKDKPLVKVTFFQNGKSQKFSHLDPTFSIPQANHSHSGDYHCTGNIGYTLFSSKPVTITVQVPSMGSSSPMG

T3: FcγRIIb (human, UniProt P31994 43-217)
T3 construct: extracellular domain; also called 2b
T3 sequence (looked up): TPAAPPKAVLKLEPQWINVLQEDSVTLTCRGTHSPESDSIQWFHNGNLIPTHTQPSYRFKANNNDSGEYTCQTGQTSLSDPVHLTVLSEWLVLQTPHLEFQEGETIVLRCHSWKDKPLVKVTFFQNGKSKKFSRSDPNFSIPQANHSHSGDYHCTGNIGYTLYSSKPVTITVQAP


Key:
[1] = target: T4, FcγRIIIa extracellular domain with C-terminal His tag (human, UniProt P08637 17-208); test: SPR, relative to GpH7-A5/GpH7-B3/GpL16-k0
T4 construct: extracellular domain; also called 3a; FcgRIIIa
T4 sequence (P08637 17-208): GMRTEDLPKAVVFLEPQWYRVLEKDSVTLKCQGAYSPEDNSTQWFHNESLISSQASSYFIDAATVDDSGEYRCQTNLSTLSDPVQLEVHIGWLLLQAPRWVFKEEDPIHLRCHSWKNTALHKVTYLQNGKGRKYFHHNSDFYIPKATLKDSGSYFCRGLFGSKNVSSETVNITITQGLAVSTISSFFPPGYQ

[2] = target: T1, FcγRIIb extracellular domain with …; test: SPR, relative to GpH7-A5/GpH7-B3/GpL16-k0
[3] = target: T4, FcγRIIIa extracellular domain with …; test: SPR; He/Con_3a over He/Con_2b (FcγRIIb)
[4] = target: T2, FcγRIIa H; test: SPR (Biacore), relative binding vs GpH7-A5/GpH7-B3/GpL16-k0
[5] = target: T3, FcγRIIb; test: as above
[6] = target: T2, FcγRIIa H; test: SPR; He/Con_2aH divided by He/Con_2b (FcγRIIb)
Description: The heterodimerized antibodies He Abs in which one of the H chains was introduced with an alteration were assayed for their binding activities to each activating FcγR and inhibitory FcγR according to the method described in Example 4. […] The activating FcγRs in FIGS. 26, 27, 28, and 29 are FcγRIa, FcγRIIa (R), FcγRIIa (H), and FcγRIIIa, respectively.
Analysis of interaction between objective antibody and the FcγR was carried out using Biacore T100 (GE Healthcare). HBS-EP+ (GE Healthcare) was used as the running buffer, and the measurement temperature was set to 25° C. Chips produced by immobilizing the antigen peptide by the amine coupling method to a Series S Sencor Chip CM5 (GE Healthcare), or alternatively, chips produced by allowing preliminarily biotinylated antigen peptides to interact with and immobilize onto a Series S Sensor Chip SA (certified) (GE Healthcare) were used. Antibodies of interest were captured onto an antigen peptide-immobilized chip, and allowed to interact to each FcγR diluted with running buffer. To regenerate and repeatedly use the chip, the antibodies captured on the chip were washed off by reacting 10 mM glycine-HCl, pH 1.5.

Binder	He/Con_3a [1] [control=100]	He/Con_2b [2] [control=100]	He_3a/2b (IIIa/IIb) [3] [ratio]	He/Con_2aH [4]	He/Con_2b [5]	He_2aH/2b (IIaH/IIb) [6] [ratio]
GpH7-A5/GpH7-B3 variant L235_14T/GpL16-k0 (antibody, human IgG1, kappa, He Ab: alteration in one H chain only; also called He Ab) heavy 1: not shown heavy 2: not shown light: DIVMTQSPLSLPVTPGEPASISCQASESLVHSNRNTYLHWYLQKPGQSPQLLIYKVSNRFSGVPDRFSGSGSGTDFTLKISRVEAEDVGVYYCSQNTHVPPTFGQGTKVEIERTVAAPSVFIFPPSDEQLKSGTASVVCLLNNFYPREAKVQWKVDNALQSGNSQESVTEQDSKDSTYSLSSTLTLSKADYEKHKVYACEVTHQGLSSPVTKSFNRGEC	75.8	46.8	1.62			
GpH7-A5/GpH7-B3 variant S267_01G/GpL16-k0 (antibody, human IgG1, kappa, heterodimerized IgG1, mutation in one H chain only; also called He Ab) heavy 1: not shown heavy 2: not shown light: DIVMTQSPLSLPVTPGEPASISCQASESLVHSNRNTYLHWYLQKPGQSPQLLIYKVSNRFSGVPDRFSGSGSGTDFTLKISRVEAEDVGVYYCSQNTHVPPTFGQGTKVEIERTVAAPSVFIFPPSDEQLKSGTASVVCLLNNFYPREAKVQWKVDNALQSGNSQESVTEQDSKDSTYSLSSTLTLSKADYEKHKVYACEVTHQGLSSPVTKSFNRGEC				71.3 % of control He Ab (=100)	105 % of control He Ab (=100)	0.68
GpH7-A5/GpH7-B3 variant H268_18N/GpL16-k0 (antibody, human IgG1, kappa, heterodimerized IgG1, mutation in one H chain only; also called He Ab) heavy 1: not shown heavy 2: not shown light: DIVMTQSPLSLPVTPGEPASISCQASESLVHSNRNTYLHWYLQKPGQSPQLLIYKVSNRFSGVPDRFSGSGSGTDFTLKISRVEAEDVGVYYCSQNTHVPPTFGQGTKVEIERTVAAPSVFIFPPSDEQLKSGTASVVCLLNNFYPREAKVQWKVDNALQSGNSQESVTEQDSKDSTYSLSSTLTLSKADYEKHKVYACEVTHQGLSSPVTKSFNRGEC				112 % of control He Ab (=100)	156 % of control He Ab (=100)	0.72
GpH7-A5/GpH7-B3 variant L235_19Q/GpL16-k0 (antibody, human IgG1, kappa, He Ab: alteration in one H chain only; also called He Ab) heavy 1: not shown heavy 2: not shown light: DIVMTQSPLSLPVTPGEPASISCQASESLVHSNRNTYLHWYLQKPGQSPQLLIYKVSNRFSGVPDRFSGSGSGTDFTLKISRVEAEDVGVYYCSQNTHVPPTFGQGTKVEIERTVAAPSVFIFPPSDEQLKSGTASVVCLLNNFYPREAKVQWKVDNALQSGNSQESVTEQDSKDSTYSLSSTLTLSKADYEKHKVYACEVTHQGLSSPVTKSFNRGEC	70.5	42.6	1.65			
GpH7-A5/GpH7-B3 variant L235_18N/GpL16-k0 (antibody, human IgG1, kappa, He Ab: alteration in one H chain only; also called He Ab) heavy 1: not shown heavy 2: not shown light: DIVMTQSPLSLPVTPGEPASISCQASESLVHSNRNTYLHWYLQKPGQSPQLLIYKVSNRFSGVPDRFSGSGSGTDFTLKISRVEAEDVGVYYCSQNTHVPPTFGQGTKVEIERTVAAPSVFIFPPSDEQLKSGTASVVCLLNNFYPREAKVQWKVDNALQSGNSQESVTEQDSKDSTYSLSSTLTLSKADYEKHKVYACEVTHQGLSSPVTKSFNRGEC	67.3	54.9	1.23			
GpH7-A5/GpH7-B3 variant H268_19Q/GpL16-k0 (antibody, human IgG1, kappa, heterodimerized IgG1, mutation in one H chain only; also called He Ab) heavy 1: not shown heavy 2: not shown light: DIVMTQSPLSLPVTPGEPASISCQASESLVHSNRNTYLHWYLQKPGQSPQLLIYKVSNRFSGVPDRFSGSGSGTDFTLKISRVEAEDVGVYYCSQNTHVPPTFGQGTKVEIERTVAAPSVFIFPPSDEQLKSGTASVVCLLNNFYPREAKVQWKVDNALQSGNSQESVTEQDSKDSTYSLSSTLTLSKADYEKHKVYACEVTHQGLSSPVTKSFNRGEC				102 % of control He Ab (=100)	133 % of control He Ab (=100)	0.77
GpH7-A5/GpH7-B3 variant H268_10E/GpL16-k0 (antibody, human IgG1, kappa, heterodimerized IgG1, mutation in one H chain only; also called He Ab) heavy 1: not shown heavy 2: not shown light: DIVMTQSPLSLPVTPGEPASISCQASESLVHSNRNTYLHWYLQKPGQSPQLLIYKVSNRFSGVPDRFSGSGSGTDFTLKISRVEAEDVGVYYCSQNTHVPPTFGQGTKVEIERTVAAPSVFIFPPSDEQLKSGTASVVCLLNNFYPREAKVQWKVDNALQSGNSQESVTEQDSKDSTYSLSSTLTLSKADYEKHKVYACEVTHQGLSSPVTKSFNRGEC				124 % of control He Ab (=100)	230 % of control He Ab (=100)	0.54
GpH7-A5/GpH7-B3 variant H268_05P/GpL16-k0 (antibody, human IgG1, kappa, heterodimerized IgG1, mutation in one H chain only; also called He Ab) heavy 1: not shown heavy 2: not shown light: DIVMTQSPLSLPVTPGEPASISCQASESLVHSNRNTYLHWYLQKPGQSPQLLIYKVSNRFSGVPDRFSGSGSGTDFTLKISRVEAEDVGVYYCSQNTHVPPTFGQGTKVEIERTVAAPSVFIFPPSDEQLKSGTASVVCLLNNFYPREAKVQWKVDNALQSGNSQESVTEQDSKDSTYSLSSTLTLSKADYEKHKVYACEVTHQGLSSPVTKSFNRGEC				81.8 % of control He Ab (=100)	116 % of control He Ab (=100)	0.7
GpH7-A5/GpH7-B3 variant K326_03V/GpL16-k0 (antibody, human IgG1, kappa, heterodimerized IgG1, mutation in one H chain only; also called He Ab) heavy 1: not shown heavy 2: not shown light: DIVMTQSPLSLPVTPGEPASISCQASESLVHSNRNTYLHWYLQKPGQSPQLLIYKVSNRFSGVPDRFSGSGSGTDFTLKISRVEAEDVGVYYCSQNTHVPPTFGQGTKVEIERTVAAPSVFIFPPSDEQLKSGTASVVCLLNNFYPREAKVQWKVDNALQSGNSQESVTEQDSKDSTYSLSSTLTLSKADYEKHKVYACEVTHQGLSSPVTKSFNRGEC				97 % of control He Ab (=100)	175 % of control He Ab (=100)	0.55
GpH7-A5/GpH7-B3 variant K326_02A/GpL16-k0 (antibody, human IgG1, kappa, heterodimerized IgG1, mutation in one H chain only; also called He Ab) heavy 1: not shown heavy 2: not shown light: DIVMTQSPLSLPVTPGEPASISCQASESLVHSNRNTYLHWYLQKPGQSPQLLIYKVSNRFSGVPDRFSGSGSGTDFTLKISRVEAEDVGVYYCSQNTHVPPTFGQGTKVEIERTVAAPSVFIFPPSDEQLKSGTASVVCLLNNFYPREAKVQWKVDNALQSGNSQESVTEQDSKDSTYSLSSTLTLSKADYEKHKVYACEVTHQGLSSPVTKSFNRGEC				106 % of control He Ab (=100)	139 % of control He Ab (=100)	0.76
GpH7-A5/GpH7-B3 variant H268_02A/GpL16-k0 (antibody, human IgG1, kappa, heterodimerized IgG1, mutation in one H chain only; also called He Ab) heavy 1: not shown heavy 2: not shown light: DIVMTQSPLSLPVTPGEPASISCQASESLVHSNRNTYLHWYLQKPGQSPQLLIYKVSNRFSGVPDRFSGSGSGTDFTLKISRVEAEDVGVYYCSQNTHVPPTFGQGTKVEIERTVAAPSVFIFPPSDEQLKSGTASVVCLLNNFYPREAKVQWKVDNALQSGNSQESVTEQDSKDSTYSLSSTLTLSKADYEKHKVYACEVTHQGLSSPVTKSFNRGEC				114 % of control He Ab (=100)	167 % of control He Ab (=100)	0.68
GpH7-A5/GpH7-B3 variant H268_09D/GpL16-k0 (antibody, human IgG1, kappa, heterodimerized IgG1, mutation in one H chain only; also called He Ab) heavy 1: not shown heavy 2: not shown light: DIVMTQSPLSLPVTPGEPASISCQASESLVHSNRNTYLHWYLQKPGQSPQLLIYKVSNRFSGVPDRFSGSGSGTDFTLKISRVEAEDVGVYYCSQNTHVPPTFGQGTKVEIERTVAAPSVFIFPPSDEQLKSGTASVVCLLNNFYPREAKVQWKVDNALQSGNSQESVTEQDSKDSTYSLSSTLTLSKADYEKHKVYACEVTHQGLSSPVTKSFNRGEC				133 % of control He Ab (=100)	239 % of control He Ab (=100)	0.55
GpH7-A5/GpH7-B3 variant H268_01G/GpL16-k0 (antibody, human IgG1, kappa, heterodimerized IgG1, mutation in one H chain only; also called He Ab) heavy 1: not shown heavy 2: not shown light: DIVMTQSPLSLPVTPGEPASISCQASESLVHSNRNTYLHWYLQKPGQSPQLLIYKVSNRFSGVPDRFSGSGSGTDFTLKISRVEAEDVGVYYCSQNTHVPPTFGQGTKVEIERTVAAPSVFIFPPSDEQLKSGTASVVCLLNNFYPREAKVQWKVDNALQSGNSQESVTEQDSKDSTYSLSSTLTLSKADYEKHKVYACEVTHQGLSSPVTKSFNRGEC				99.2 % of control He Ab (=100)	144 % of control He Ab (=100)	0.69
GpH7-A5/GpH7-B3 variant H268_13S/GpL16-k0 (antibody, human IgG1, kappa, heterodimerized IgG1, mutation in one H chain only; also called He Ab) heavy 1: not shown heavy 2: not shown light: DIVMTQSPLSLPVTPGEPASISCQASESLVHSNRNTYLHWYLQKPGQSPQLLIYKVSNRFSGVPDRFSGSGSGTDFTLKISRVEAEDVGVYYCSQNTHVPPTFGQGTKVEIERTVAAPSVFIFPPSDEQLKSGTASVVCLLNNFYPREAKVQWKVDNALQSGNSQESVTEQDSKDSTYSLSSTLTLSKADYEKHKVYACEVTHQGLSSPVTKSFNRGEC				112 % of control He Ab (=100)	160 % of control He Ab (=100)	0.7
